# T1: Uba3/AppBP1 protein complex (Mus musculus, UniProt Q8C878)
# T1 construct: Myc-tagged, full-length mouse Uba3; host or cells: cell-free: TNT Coupled Reticulocyte Lysate System, 35S-methionine labelled
# T1 sequence (Q8C878 22-462 V120X/V142X/I148X/P243X limits assumed): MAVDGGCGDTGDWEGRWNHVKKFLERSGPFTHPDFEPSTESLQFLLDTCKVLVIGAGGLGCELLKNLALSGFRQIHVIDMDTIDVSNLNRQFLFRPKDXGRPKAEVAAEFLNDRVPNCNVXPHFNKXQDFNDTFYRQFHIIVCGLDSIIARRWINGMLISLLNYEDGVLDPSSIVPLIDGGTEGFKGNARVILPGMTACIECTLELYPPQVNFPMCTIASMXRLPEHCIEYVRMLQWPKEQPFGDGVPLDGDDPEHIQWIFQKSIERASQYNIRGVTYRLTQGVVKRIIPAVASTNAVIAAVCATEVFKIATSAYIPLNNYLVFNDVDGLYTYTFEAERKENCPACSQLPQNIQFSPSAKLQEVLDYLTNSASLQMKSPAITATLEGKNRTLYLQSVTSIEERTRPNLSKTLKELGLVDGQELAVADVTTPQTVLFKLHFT
# T2: GST-SPATIAL(L) (Mus musculus, UniProt Q7TSD4)
# T2 construct: made in house
# T2 sequence (Q7TSD4 with tags, fused parts or gaps isoform Q7TSD4-6 limits assumed): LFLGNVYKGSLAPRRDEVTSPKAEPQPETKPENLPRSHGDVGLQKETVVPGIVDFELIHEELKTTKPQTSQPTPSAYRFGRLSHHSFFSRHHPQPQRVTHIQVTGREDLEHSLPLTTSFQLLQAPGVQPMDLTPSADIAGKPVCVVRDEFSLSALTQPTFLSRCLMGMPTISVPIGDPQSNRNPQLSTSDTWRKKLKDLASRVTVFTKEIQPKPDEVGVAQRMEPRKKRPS
# Legend:
# [1] = biological target: T1, Uba3/AppBP1 protein complex; assay: GST pulldown and immunoprecipitation, Uba3 and AppBP1 interaction; assay type: binding; settings: FIG. 4
# Procedure: To determine whether SPATIAL has an effect on the neddylation pathway, cDNAs for each of the components of the Nedd8 conjugation pathway were obtained from EST depositories (AppBP1, GenBank Accession No. BC00480; Uba3, GenBank Accession No. BC002002). These cDNAs were used to produce radiolabeled proteins by in vitro transcription and translation.
# The effect of SPATIAL on the first step of the pathway, the interaction between Uba3 and AppBP1, was tested using a GST pulldown assay
# In a typical GST pulldown assay, GST and GST-SPATIAL were prepared from transformed bacterial cultures as previously described (e.g., Ausubel et al., Current Protocols in Molecular Biology, Greene Publishing Associates, updated November 2003, Chapter 20, Analysis of Protein Interactions, Unit 20.2, Affinity Purification of Proteins Binding to GST Fusion Proteins). After purification, GST and GST-SPATIAL proteins were mixed with glutathione-sepharose beads and the mixtures were frozen in 200 μl aliquots. The amount of protein bound to the beads was quantitated using a colormetric assay (BCA assay; Pierce-Endogen).
# Uba3 and AppBP1 were in vitro translated and ^35S-methionine labeled using 0.5 μg of the respective expression plasmids in a 50 μl reaction using TNT® Coupled Reticulocyte Lysate Systems (Promega) by following the manufacturer's instructions. […]
# GST-SPATIAL(L) = biological target: T2, GST-SPATIAL(L); assay: GST pulldown assay with GST-SPATIAL long isoform; assay type: binding; settings: 35S-methionine labeled in vitro translated protein
# Procedure: Eighteen cDNA clones identified in the yeast two-hybrid system were tested in an in vitro glutathione-S-transferase (GST) pulldown assay, as described in Ausubel et al., Current Protocols in Molecular Biology, Greene Publishing Associates, updated November 2003, Chapter 20, Analysis of Protein Interactions, Unit 20.2, Affinity Purification of Proteins Binding to GST Fusion Proteins.
# Briefly, a GST-SPATIAL fusion construct was produced by cloning SPATIAL cDNA(s) into pGEx5X1 expression vector using standard molecular cloning techniques. GST or GST-SPATIAL fusion protein were expressed in 1-1000 ml bacterial cultures grown for 3-4 hours until OD600 reached 0.5. Then, plasmid expression was induced for 1.5-4 hours by the addition of ITPG to a final concentration of 0.11 mM. GST or GST-fusion proteins were purified using glutathione-Sepharose beads as described in Ausubel et al., Current Protocols in Molecular Biology, Greene Publishing Associates, updated November 2003, Chapter 20, Analysis of Protein Interactions, Unit 20.2, Affinity Purification of Proteins Binding to GST Fusion Proteins.
# A coupled in vitro transcription and translation system (Promega) was used according to the manufacturer's instructions to produce radiolabeled protein from cDNAs to be tested. Radiolabeled proteins were mixed with either purified GST or GST-SPATIAL. Then, GST-containing protein complexes were purified by centrifugation from the reaction mixtures using glutathione-coated Sepharose beads. Bound proteins were eluted from the beads with SDS-PAGE loading buffer heated to 72-85° C., separated on polyacrylamide gels, and visualized by autoradiography. Specific interactions between GST-SPATIAL and in vitro translated proteins were indicated by the presence of a radiolabeled in vitro translated protein in the GST-SPATIAL-containing samples, but not in the GST-alone samples.
# GST pulldown assays were performed as described in Example 9 using GST-SPATIAL(L) and GST-SPATIAL(S) and each of the Uba3 mutants described in this example.
# 293T cells = assay: Uba3 co-transfection with SPATIAL-EGFP, growth arrest; assay type: cell-based, human; settings: transient over expression, 0.5, 2.5 or 4.5 μg/well Uba3 plasmid, FIG. 9
# Procedure: To determine whether Uba3 is involved in SPATIAL mediated growth suppression, co-transfections were done using increasing amounts of an Uba3 expression vector with constant amounts of SPATIAL-EGFP or EGFP.
# 4×10^5 293T cells were transfected in 6 well plates using 5 μg of a mixture of plasmids. The plasmids used were pEGFP-N1 (0.5 μg/well), pEGFP-SPATIAL(L) (0.5 μg/well), pcDNA3.1 Myc/his M Uba3 (0.5, 2.5 or 4.5 μg/well) (pcDNA3.1 myc/His may be obtained from Invitrogen), and pWL-neo (4 or 2 μg/well). The plasmid pWL-neo (Stratagene) was used as a control plasmid to make sure that the total DNA in each transfection totaled 5 μg. Transfections were done using Lipofectamine 2000 using manufacturers instructions (Invitrogen).
# Twenty four hours after transfection, the cells were trypsinized and re-plated onto 10 cm dishes and cultured for up to 6 days. The number of EGFP-positive cells were determine at 24, 36 and 144 hours after transfection by harvesting the cells, counting and FACS analysis to determine the percentage of EGFP-positive cells.
effect on Uba3 binding to AppBP1 [1],interaction with GST-SPATIAL(L) (GST-SPATIAL(L)),Molecule,effect on growth inhibition of SPATIAL-EGFP transfected cells (293T cells)
interferes with Uba3 binding to AppBP1,,"GST-SPATIAL: glutathione-S-transferase SPATIAL fusion protein (protein, left off: a dimerising Fc or GST, glutathione-S-transferase SPATIAL fusion protein) LFLGNVYKGSLAPRRDEVTSPKAEPQPETKPENLPRSHGDVGLQKETVVPGIVDFELIHEELKTTKPQTSQPTPSAYRFGRLSHHSFFSRHHPQPQRVTHIQVTGREDLEHSLPLTTSFQLLQAPGVQPMDLTPSADIAGKPVCVVRDEFSLSALTQPTFLSRCLMGMPTISVPIGDPQSNRNPQLSTSDTWRKKLKDLASRVTVFTKEIQPKPDEVGVAQRMEPRKKRPS",
,specifically bound,"Uba3: catalytic subunit of NEDD8 activating enzyme, a 441-amino acid protein (SEQ ID NO: 6) (protein, listed as Mus musculus, (99)..(99) The ′Xaa′ at location 99 stands for Val.; (121)..(121) The ′Xaa′ at location 121 stands for Val.; (127)..(127) The ′Xaa′ at location 127 stands for Ile.; (222)..(222) The ′Xaa′ at location 222 stands for Pro.) MAVDGGCGDTGDWEGRWNHVKKFLERSGPFTHPDFEPSTESLQFLLDTCKVLVIGAGGLGCELLKNLALSGFRQIHVIDMDTIDVSNLNRQFLFRPKDXGRPKAEVAAEFLNDRVPNCNVXPHFNKXQDFNDTFYRQFHIIVCGLDSIIARRWINGMLISLLNYEDGVLDPSSIVPLIDGGTEGFKGNARVILPGMTACIECTLELYPPQVNFPMCTIASMXRLPEHCIEYVRMLQWPKEQPFGDGVPLDGDDPEHIQWIFQKSIERASQYNIRGVTYRLTQGVVKRIIPAVASTNAVIAAVCATEVFKIATSAYIPLNNYLVFNDVDGLYTYTFEAERKENCPACSQLPQNIQFSPSAKLQEVLDYLTNSASLQMKSPAITATLEGKNRTLYLQSVTSIEERTRPNLSKTLKELGLVDGQELAVADVTTPQTVLFKLHFT",overcomes the growth inhibition

# — patent publication US20070248589A1 (GOVERNMENT OF THE UNITED STATES OF AMERICA AS REPRESENTED …, published 2007)
